Experimental data: patent US20210030857A1 (NGM BIOPHARMACEUTICALS, published 2021)
Where “and” joins values, the source holds several entries; their conditions need not be identical. Identical values can stand only once.

Assays:
[1] = target: T1, human beta klotho protein (soluble, used in Biacore) (human, UniProt Q86Z14 53-997, limits assumed); experiment: Biacore SPR (as in Example 2)
T1 construct: also called HuKLB; huKLB
T1 sequence: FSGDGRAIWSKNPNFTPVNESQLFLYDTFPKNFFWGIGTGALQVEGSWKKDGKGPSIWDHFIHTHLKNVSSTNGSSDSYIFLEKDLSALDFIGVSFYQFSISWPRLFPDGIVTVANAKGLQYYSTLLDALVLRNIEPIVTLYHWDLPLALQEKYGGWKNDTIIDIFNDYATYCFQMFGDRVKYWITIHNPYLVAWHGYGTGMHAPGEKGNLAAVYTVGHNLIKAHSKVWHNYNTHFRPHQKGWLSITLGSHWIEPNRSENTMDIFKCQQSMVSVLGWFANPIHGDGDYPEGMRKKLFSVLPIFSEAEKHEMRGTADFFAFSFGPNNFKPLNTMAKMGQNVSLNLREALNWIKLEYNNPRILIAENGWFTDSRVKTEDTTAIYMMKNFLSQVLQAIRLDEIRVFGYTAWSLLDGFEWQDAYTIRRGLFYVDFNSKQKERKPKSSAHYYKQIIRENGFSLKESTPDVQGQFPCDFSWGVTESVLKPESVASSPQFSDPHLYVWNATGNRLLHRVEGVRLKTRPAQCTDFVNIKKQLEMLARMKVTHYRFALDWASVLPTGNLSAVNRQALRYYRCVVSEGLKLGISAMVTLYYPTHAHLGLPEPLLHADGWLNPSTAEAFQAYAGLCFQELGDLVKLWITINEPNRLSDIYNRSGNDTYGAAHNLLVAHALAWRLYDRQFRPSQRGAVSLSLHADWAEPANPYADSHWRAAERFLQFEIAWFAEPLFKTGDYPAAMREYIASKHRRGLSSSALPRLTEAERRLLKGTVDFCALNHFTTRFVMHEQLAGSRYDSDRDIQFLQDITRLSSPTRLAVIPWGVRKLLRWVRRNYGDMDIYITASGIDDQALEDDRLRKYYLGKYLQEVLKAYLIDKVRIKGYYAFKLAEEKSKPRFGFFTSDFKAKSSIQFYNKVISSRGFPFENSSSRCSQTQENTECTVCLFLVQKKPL

[2] = target: T2, human beta klotho mutant H657A on HEK-293T cells (human, UniProt Q86Z14 1-1044); experiment: shotgun alanine mutagenesis, FACS on HEK-293T cells, antibody 0.5 µg/ml
T2 sequence: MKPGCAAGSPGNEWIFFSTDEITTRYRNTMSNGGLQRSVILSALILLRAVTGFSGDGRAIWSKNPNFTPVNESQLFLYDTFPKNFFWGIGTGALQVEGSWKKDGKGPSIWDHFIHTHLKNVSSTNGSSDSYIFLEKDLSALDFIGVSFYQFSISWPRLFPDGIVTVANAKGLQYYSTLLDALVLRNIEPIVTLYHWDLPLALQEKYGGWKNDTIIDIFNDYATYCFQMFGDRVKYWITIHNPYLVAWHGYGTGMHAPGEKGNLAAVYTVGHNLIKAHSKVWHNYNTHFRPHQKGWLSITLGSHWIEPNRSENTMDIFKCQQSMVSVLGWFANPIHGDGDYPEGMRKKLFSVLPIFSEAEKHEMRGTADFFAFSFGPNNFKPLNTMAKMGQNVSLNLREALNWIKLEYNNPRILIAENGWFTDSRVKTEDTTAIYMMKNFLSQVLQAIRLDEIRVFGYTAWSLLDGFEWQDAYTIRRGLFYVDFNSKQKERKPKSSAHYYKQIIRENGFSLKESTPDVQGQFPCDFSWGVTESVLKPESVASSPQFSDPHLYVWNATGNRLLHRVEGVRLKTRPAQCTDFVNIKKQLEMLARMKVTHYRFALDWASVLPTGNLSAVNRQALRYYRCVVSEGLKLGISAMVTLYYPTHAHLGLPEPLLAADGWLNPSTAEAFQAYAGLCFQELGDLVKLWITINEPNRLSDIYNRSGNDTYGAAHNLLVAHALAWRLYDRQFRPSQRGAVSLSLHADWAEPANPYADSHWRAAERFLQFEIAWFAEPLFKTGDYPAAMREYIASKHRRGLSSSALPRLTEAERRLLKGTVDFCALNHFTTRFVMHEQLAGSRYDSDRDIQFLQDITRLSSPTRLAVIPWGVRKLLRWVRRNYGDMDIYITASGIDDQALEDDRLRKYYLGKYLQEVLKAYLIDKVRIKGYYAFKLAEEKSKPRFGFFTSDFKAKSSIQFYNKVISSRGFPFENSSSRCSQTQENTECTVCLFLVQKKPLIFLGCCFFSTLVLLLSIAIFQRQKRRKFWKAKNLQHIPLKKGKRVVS
Experimental: In order to further identify specific binding residues within human beta klotho KL2 domain, shotgun mutagenesis was used to separately mutate individual residues of the KL2 domain of human beta klotho to an alanine (e.g., residues F508A-L1008A). […] For example, screening of the beta klotho mutant proteins was conducted at a concentration of 0.5 μg/ml for the humanized 5H23 antibody, 1.0 μg/ml for the Fab fragment, and 2.0 μg/ml for a positive control polyclonal anti-beta klotho antibodies.
The resulting mapping identified three specific binding residues, H657, Y701 and R703, which were negative for binding by the humanized 5H23 antibody, but were positive for the control polyclonal anti-beta klotho antibodies. These residues represented amino acids whose side changes made the highest energetic contributions to the antibody-epitope interation as shown in Table 31. The locations of the three identified residues were modeled by showing them (dark spheres) at the equivalent positions on human cytosolic beta-glucosidase (PDB ID #2JFE; Tribolo et al., J. Mol. Biol. 370, 964-975 (2007)), identified by BLAST alignment of the two proteins as shown in FIG. 6.

Kd [1]: 0.64 nM and 0.58 nM
B1: humanized 5H23 antibody (VH SEQ ID NO: 271 and VL SEQ ID NO: 276) (antibody, V domains shown)
VH: QVQLQQSGAEVKKPGASVKVSCKASGYTFTSYDINWVRQAPGQGLEWIGWIYPGDGSTKYNEKFKGKATITRDTSASTAYMELSSLRSEDTAVYFCARSDYYGSRSFAYWGQGTLVTVSS
VL: DIVMTQSPDSLAVSLGERATINCRASKSVSTSGYVYMHWYQQKPGQPPKLLIYLASYLESGVPDRFSGSGSGTDFTLTISSVQAEDVAVYYCQHSRDLTFPFGGGTKLEIK
notes: also called h5H23; h5H23 (Prep 1)
Binding Reactivity (% WT) [2]: 16.9 % WT
